Here are results for two molecules from patent US20050272637A1 (OREGON HEALTH AND SCIENCE UNIVERSITY, published 2005).

Assay [1] addresses T1, HER-2 (erbB-2), human receptor (human, UniProt P04626 23-1255).
T1 construct: On HER-2-transfected Cos-7 cells or 3T3/HER-2 cells (cell ELISA), or from transfected Cos-7 cell extracts (pull-down)
Briefly: saturation binding to HER-2/3T3 cells, herstatin ELISA, nonlinear regression (FIG. 5B). As to the method:
(§1) ELISA. […] Cells were washed with Phosphate Buffered Saline (PBS) and extracted in 50 mM Tris-HCl, pH 7.0, 1.0% NP-40.
(§2) Statistical comparisons between different binding curves were performed by extra sums-of-squares F-test nonlinear regression coefficients. All tests were performed (α=0.05) using GraphPad Prism 4™ software (GraphPad™ Software, 1994-2003).

Assay [2] concerns the target HER-4 (erbB-4), human receptor (human, UniProt Q15303 26-1308). The assay can be described thus: ELISA of Int8 bound to transfected cells (FIG. 3B). On the procedure: as §1
For assay [3], the target named is T1, HER-2 (erbB-2), human receptor. The assay can be described thus: saturation binding to HER-2-transfected Cos-7 cells, herstatin ELISA, nonlinear regression (FIG. 5A). On the procedure:
as §1, §2
For orientation: An ELISA detects its analyte on a solid surface through an enzyme-linked reagent.

The target in assay [4] is T2, IGF-1R, insulin-like growth factor 1 receptor (human, UniProt P08069 31-1367).
T2 construct: On IGF-IR transfected 3T3 cells (hIGF-1R-3T3) in cell ELISA, or from their extracts in pull-downs (detected through the beta subunit); The entry is the precursor; the processing into alpha and beta subunits is not described; also called IGF-IR; IGF-1 receptor
T2 sequence (P08069 31-1367 limits assumed): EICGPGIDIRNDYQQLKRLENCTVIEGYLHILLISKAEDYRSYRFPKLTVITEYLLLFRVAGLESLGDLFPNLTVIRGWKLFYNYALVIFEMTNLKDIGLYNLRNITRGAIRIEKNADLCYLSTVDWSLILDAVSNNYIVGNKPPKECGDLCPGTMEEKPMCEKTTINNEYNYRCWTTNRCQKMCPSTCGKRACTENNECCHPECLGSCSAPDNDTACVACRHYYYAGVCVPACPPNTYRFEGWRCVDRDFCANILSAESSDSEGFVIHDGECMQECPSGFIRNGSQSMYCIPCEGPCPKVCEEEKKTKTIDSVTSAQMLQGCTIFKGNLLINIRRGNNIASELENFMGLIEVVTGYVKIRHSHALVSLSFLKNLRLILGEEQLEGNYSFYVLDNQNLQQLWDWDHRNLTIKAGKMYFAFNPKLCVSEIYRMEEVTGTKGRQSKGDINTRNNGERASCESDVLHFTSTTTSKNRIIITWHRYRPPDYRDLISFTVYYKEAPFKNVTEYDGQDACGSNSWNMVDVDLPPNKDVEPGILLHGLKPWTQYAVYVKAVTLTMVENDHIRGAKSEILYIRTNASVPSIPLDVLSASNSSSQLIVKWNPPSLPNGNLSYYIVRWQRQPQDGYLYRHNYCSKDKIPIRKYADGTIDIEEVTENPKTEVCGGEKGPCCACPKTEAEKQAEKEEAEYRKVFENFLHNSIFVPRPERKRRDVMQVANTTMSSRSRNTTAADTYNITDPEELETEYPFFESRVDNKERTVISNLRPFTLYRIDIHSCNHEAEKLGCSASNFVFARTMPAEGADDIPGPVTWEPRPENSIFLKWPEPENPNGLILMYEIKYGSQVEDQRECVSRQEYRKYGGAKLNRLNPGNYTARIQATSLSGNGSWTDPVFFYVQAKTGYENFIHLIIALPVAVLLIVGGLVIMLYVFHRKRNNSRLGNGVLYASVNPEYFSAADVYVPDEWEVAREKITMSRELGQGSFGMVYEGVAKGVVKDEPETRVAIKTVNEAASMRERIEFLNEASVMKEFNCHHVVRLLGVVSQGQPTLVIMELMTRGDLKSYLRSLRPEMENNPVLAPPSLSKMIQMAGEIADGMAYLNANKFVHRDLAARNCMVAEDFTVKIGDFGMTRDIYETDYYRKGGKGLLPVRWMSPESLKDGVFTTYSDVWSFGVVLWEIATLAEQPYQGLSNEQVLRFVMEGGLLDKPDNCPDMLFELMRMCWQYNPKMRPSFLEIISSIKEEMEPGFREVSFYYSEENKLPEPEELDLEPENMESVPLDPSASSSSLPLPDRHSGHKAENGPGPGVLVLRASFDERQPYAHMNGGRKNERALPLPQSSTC
Briefly: saturation binding to IGF-IR transfected 3T3 cells, herstatin ELISA, nonlinear regression. As to the method: as §1, §2

The target of assay [5] is T2, IGF-1R, insulin-like growth factor 1 …. Briefly: saturation binding to IGF-IR/3T3 cells, herstatin ELISA, nonlinear regression (FIG. 5B). On the procedure: as §1, §2
The target is the same in assay [6]. The assay can be described thus: saturation binding to IGF-IR 3T3 cells, herstatin ELISA (determination of EXAMPLE 2). As to the method:
as §1, §2

The target of assay [7] is T3, EGFR (HER-1, erbB-1), human epidermal growth factor receptor (human, UniProt P00533 25-1210).
T3 construct: also called EGF receptor
The assay can be described thus: saturation binding to EGFR-transfected Cos-7 cells, herstatin ELISA, nonlinear regression (FIG. 5A). On the procedure:
as §1, §2

Assay [8] addresses T1, HER-2 (erbB-2), human receptor. The assay can be described thus: herstatin ELISA of peptide bound to HER-2 overexpressing cells. As to the method:
as §1

Assay [9] shares this target. The assay can be described thus: pull-down of HER-2 from transfected cell extracts, Western blot. As to the method: Methods. Cell lines, expression vectors, protein purification, pull down assays, antibodies and ELISA assays were as described under EXAMPLE 1, herein above. […] Following washing steps, the protein bound to the agarose was analyzed as a Western blot with receptor-specific antibodies.

HER-4 (erbB-4), human receptor, sequence (Q15303 26-1308 limits assumed): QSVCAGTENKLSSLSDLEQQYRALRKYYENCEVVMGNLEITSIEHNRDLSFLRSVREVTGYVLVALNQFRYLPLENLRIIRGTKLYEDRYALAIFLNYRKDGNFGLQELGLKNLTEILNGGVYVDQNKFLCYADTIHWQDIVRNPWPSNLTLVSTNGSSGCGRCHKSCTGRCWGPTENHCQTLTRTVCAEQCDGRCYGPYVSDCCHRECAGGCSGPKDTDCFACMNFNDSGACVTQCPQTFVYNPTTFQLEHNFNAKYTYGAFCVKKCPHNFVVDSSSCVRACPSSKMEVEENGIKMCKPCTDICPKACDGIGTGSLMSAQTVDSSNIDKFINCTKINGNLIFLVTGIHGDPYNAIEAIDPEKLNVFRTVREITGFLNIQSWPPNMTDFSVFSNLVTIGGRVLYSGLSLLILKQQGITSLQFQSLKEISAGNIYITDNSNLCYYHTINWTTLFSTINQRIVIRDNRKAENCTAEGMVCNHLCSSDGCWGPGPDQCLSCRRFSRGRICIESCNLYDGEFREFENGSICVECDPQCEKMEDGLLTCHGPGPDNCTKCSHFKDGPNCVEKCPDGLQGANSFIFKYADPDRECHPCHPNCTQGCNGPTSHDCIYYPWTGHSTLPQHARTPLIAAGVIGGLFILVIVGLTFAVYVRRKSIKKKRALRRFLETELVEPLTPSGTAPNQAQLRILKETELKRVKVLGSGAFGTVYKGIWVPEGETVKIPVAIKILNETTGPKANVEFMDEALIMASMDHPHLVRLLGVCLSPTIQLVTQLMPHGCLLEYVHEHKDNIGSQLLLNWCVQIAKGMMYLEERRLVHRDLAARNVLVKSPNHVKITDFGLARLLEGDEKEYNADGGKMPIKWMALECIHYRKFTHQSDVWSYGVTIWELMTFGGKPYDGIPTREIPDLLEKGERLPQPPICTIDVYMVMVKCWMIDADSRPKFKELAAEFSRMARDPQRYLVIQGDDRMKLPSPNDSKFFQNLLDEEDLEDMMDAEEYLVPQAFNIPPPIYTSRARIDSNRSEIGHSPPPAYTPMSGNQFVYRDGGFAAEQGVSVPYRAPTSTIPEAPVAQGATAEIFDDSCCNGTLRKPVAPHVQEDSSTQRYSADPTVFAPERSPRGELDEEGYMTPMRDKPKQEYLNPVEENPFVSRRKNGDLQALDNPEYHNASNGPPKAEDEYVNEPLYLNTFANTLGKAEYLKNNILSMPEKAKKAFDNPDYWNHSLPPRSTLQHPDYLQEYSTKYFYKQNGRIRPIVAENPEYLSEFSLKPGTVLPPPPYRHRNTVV

B1: RBD Int8 polypeptide (intron 8-encoded receptor binding domain of herstatin, expressed as a bacterial peptide) (peptide)
chain: GTHSLPPRPAAVPVPLRMQPGPAHPVLSFLRPSWDLVSAFYSLPLAPLSPTSVPISPVSVGRGPDPDAHVAVDLSRYEG
notes: Purified from BL-21 bacteria; also called Int8 RBD polypeptide; Int8 peptide; not shown: pET 30 vector-encoded tags (His tag used for nickel purification, S-protein tag used for immobilisation)
Regarding B1, the Kd in assay [1] is 66 nM; in assay [3] it was 50 nM; in [4] it was 40 to 150 nM; in assay [5], 70 nM; in [6] it was 40 nM; in [7], 78 nM. In assay [2], the binding result is reported as “binds”.

B2: mutant Int8 polypeptide with Arg to Ile mutation at residue 31 (peptide, not shown: small tags and cut ends)
chain: GTHSLPPRPAAVPVPLRMQPGPAHPVLSFLIPSWDLVSAFYSLPLAPLSPTSVPISPVSVGRGPDPDAHVAVDLSRYEG
notes: also called mutant RBD Int8 polypeptide; mutant Int8 RBD polypeptide
For the molecule B2, the “fold weaker binding than the wildtype peptide” value in assay [8] was approximately 2 fold. In assay [9], the “fold weaker binding than the wild type sequence (SEQ ID NO:24)” value was approximately 2 fold.

As a reminder, the Kd is the concentration at which binding is half-saturated.
